Test results: patent US12083165B2, “Thymosin alpha 1 for use in treatment of cystic fibrosis” (SciClone Pharmaceuticals International (SG) PTE. LTD., priority 2015, dated 2024)

Molecular target: ΔF508 CFTR (Homo sapiens, UniProt P13569, DEL508-508)
Test: CFTR immunoblot (mature C / immature B band) in CFBE41o− cells stably expressing ΔF508 CFTR
Assay type: cell-based
Experimental: Cells. Cell Lines and Cell Culture—Human bronchial epithelial (HBE) cells, homozygous for the […] mutation and its isogenic wild-type were obtained from lung transplants (CF patients) or lung resections (non-CF patients) (kindly provided by L J Galietta within the Italian Cystic Fibrosis Foundation). Cells were maintained at 37° C. in a humidified incubator in an atmosphere containing 5% CO2, and the experiments were done 5 days after plating (21, 22). Stable lentiviral-based transduction of the parental CFBE41o− cells (ΔF508/ΔF508), originally immortalized and characterized by Dr. D. Gruenert and co-workers (32) with either WT-CFTR or ΔF508-CFTR, was performed by Tranzyme, Inc. (Birmingham, AL). The transduced CFBE41o− cells were maintained in minimum Eagle's medium supplemented with 50 units/ml penicillin, 50 μg/ml streptomycin, 2 mM L-glutamine, 10% fetal bovine serum, and 1 μg/ml blasticidine (WT-CFTR) or 2 μg/ml puromycin (ΔF508-CFTR) in a 5% CO2, 95% air incubator at 37° C. The parental CFBE41o− cells were maintained under the same culture conditions but without blasticidine or puromycin. To establish polarized monolayers, CFBE41o− cells were seeded on 24-mm-diameter Transwell permeable supports ([…] pore size; Corning Corp., Corning, NY) at 2×10^6 and grown in air-liquid interface culture at 37° C. for 6-9 days and then at 27° C. for 36 hours. Cells were incubated with Tα1 100 ng/ml (CRIBI Biotechnology, Padova, see below), 3 μM VX-809 (Lumacaftor, Aurogene Rome, Italy), 1 μM VX-770 (Ivacaftor, Aurogene) alone or in combination for 24 hours before the assessment of CFTR protein expression and function. DMSO vehicle alone (0.1%, v/v) for 24 h was used as a control.
CFTR Immunoblot Analysis. Immunoblot techniques using the anti-CFTR antibody (clone CF3, Abcam) were used to measure CFTR maturation in FRT, HEK-293, or HBE cells expressing CFTR or F508del-CFTR (34). After incubation, cells were harvested in ice-cold D-PBS solution (without calcium and magnesium) and pelleted at 1,000×g at 4° C. Cell pellets were lysed in 1% Nonidet P-40, 0.5% sodium deoxycholate, 200 mM NaCl, 10 mM Tris, pH 7.8, and 1 mM EDTA plus protease inhibitor mixture (1:250; Roche) for 30 min on ice. Lysates were spun for 10 min at 10,000×g at 4° C. to pellet nuclei and insoluble material. […] LiteAblotPlus chemiluminescence substrate (Euroclone S.p.A.), using ChemiDoc™ XRS+ Imagig system (Bio-Rad Laboratories) and blot quantification was obtained by densitometry image analysis using Image Lab 3.1.1 software (Bio-Rad).
The SV40 transformed CF airway epithelial cell line (CFBE41o−), homozygous for the ΔF508-CFTR mutation, was used (32). […] CFTR bands were quantified by densitometry and expressed as the C/B ratio. […]

Chain of ΔF508 CFTR (P13569 with tags, fused parts or gaps DEL508-508): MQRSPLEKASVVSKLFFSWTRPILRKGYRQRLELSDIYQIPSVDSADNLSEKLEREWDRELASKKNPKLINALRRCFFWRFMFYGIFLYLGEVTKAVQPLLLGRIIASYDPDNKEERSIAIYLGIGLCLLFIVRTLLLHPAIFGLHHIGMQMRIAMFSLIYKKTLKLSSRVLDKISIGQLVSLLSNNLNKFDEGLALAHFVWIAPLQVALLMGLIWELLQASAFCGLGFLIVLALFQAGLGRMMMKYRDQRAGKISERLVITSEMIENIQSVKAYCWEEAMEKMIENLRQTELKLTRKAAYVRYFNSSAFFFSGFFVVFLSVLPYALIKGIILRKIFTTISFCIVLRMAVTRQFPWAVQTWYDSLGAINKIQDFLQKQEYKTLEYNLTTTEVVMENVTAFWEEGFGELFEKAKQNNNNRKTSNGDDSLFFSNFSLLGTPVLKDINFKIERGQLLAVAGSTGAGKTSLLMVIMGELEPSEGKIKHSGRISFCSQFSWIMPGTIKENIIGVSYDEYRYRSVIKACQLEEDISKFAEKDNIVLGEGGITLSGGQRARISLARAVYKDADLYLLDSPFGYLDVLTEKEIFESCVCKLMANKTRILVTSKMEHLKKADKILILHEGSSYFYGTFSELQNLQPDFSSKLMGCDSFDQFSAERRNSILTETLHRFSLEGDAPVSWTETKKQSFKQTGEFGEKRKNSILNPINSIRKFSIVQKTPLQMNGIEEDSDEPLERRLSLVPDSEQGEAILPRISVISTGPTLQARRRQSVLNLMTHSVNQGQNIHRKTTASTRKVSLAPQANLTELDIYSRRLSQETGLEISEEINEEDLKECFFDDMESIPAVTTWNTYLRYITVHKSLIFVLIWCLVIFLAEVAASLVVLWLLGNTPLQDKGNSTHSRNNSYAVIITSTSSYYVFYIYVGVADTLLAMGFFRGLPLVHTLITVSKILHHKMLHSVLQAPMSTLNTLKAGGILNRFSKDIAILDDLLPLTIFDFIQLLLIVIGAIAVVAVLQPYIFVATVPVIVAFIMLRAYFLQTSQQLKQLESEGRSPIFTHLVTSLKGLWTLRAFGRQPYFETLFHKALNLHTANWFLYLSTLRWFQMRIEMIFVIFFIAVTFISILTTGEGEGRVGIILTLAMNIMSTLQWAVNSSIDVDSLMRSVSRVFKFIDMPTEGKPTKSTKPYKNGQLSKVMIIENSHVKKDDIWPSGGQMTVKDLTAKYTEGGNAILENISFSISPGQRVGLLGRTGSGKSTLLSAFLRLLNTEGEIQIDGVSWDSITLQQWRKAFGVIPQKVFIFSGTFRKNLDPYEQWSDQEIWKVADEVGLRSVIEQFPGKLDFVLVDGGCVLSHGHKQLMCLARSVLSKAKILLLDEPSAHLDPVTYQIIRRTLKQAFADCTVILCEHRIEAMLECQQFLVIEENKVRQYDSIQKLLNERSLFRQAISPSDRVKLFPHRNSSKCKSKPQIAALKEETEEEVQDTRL

## Ac-Ser-Asp-Ala-Ala-Val-Asp-Thr-Ser-Ser-Glu-Ile-Thr-Thr-Lys-Asp-Leu-Lys-Glu-Lys-Lys-Glu-Val-Val-Glu-Glu-Ala-Glu-Asn-O (Ac-SDAAVDTSSEITTKDLKEKKEVVEEAEN-OH; not fully specified; printed as Ac-Ser-Asp-Ala-Ala-Val-Asp-Thr-Ser-Ser-Glu-Ile-Thr-Thr-Lys-Asp-Leu-Lys-Glu-Lys-Lys-Glu-Val-Val-Glu-Glu-Ala-Glu-Asn-O; listed as Homo sapiens) [Tα1, naturally occurring polypeptide of 28 amino acid; supplied as purified sterile, lyophilized, acetylated polypeptide]
100 ng/ml Tα1, from 30 mins until 24 hours, CFBE41o− cells expressing ΔF508 CFTR
  cellular expression of ΔF508 mature CFTR (band C, C/B ratio): persistently increased
ΔF508-transfected cells, 24 hours, Tα1 100 ng/ml, VX-770 1 μM, VX-809 3 μM alone or in combination
  expression of the mature form (C) relative to the immature form (B) of CFTR: increased
